The values below come from patent US20090312236A1.

The experiment concerns the target human IGF-1 receptor (human) (UniProt P08069). The experiment can be described thus: competitive radioligand SPA, [125I]IGF-1, hIGF-1R membranes.

The term Ki denotes the equilibrium dissociation constant of an inhibitor or competing ligand from its target. Lower therefore signals higher affinity.

Turning to “insulin lispro (ligand; other documents disagree on this pair)”, the Ki was > 75 nM.
